Test results from US20260022175A1 (Chugai, published 2026).
Residue numbers refer to the chain shown, from its start. Names and notes keep the numbering of the source. Blank lines part the entries; values can stand above or below the binder they belong to.

Tests used:
[1] = target: T1, human FcγRIIb extracellular domain with C-terminal His-tag (human, UniProt P31994 43-217); assay: SPR; binding amount divided by that of 04H1389-G1m/04L1615-k0MT
T1 construct: extracellular domain; also called hFcγR IIb
T1 sequence (looked up): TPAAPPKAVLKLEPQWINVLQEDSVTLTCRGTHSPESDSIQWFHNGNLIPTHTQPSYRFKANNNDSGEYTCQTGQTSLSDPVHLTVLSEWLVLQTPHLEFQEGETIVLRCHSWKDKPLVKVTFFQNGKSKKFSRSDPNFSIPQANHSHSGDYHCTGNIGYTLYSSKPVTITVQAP

[2] = target: T2, human FcRn (human, UniProt P55899 24-290; P61769 21-119); assay: SPR Biacore T200, Ab captured via Fab-kappa, pH 6.0, steady state
T2 construct: Prepared by the method of WO 2010/107110; also called hFcRn

[3] = target: T3, human FcγRIa extracellular domain with C-terminal His-tag (human, UniProt P12314 16-292); assay: SPR Biacore T200, Ab captured via Fab-kappa, pH 7.4, 25C;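 note: each FcγR flowed as analyte over the captured antibodies, KD derived by 1:1 Langmuir or steady-state affinity fitting depending on the receptor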
T3 construct: extracellular domain; also called hFcγR Ia; hFcγRIa
Protocol: (§1) The interaction between the generated antibodies and human FcγRs was analyzed using Biacore T200. 50 mM Na-Phosphate, 150 mM NaCl, 0.05% Tween20 (pH 7.4) was used as the running buffer, and the assay was performed at 25° C. For the sensor chip, Series S SA (GE Healthcare) chips onto which CaptureSelect Human Fab-kappa Kinetics Biotin Conjugate (Thermo Fisher Scientific) was immobilized were used. The antibodies of interest were captured onto these chips and each FcγR diluted in the running buffer was allowed to interact with them. Chips were regenerated with 10 mM Glycine-HCl (pH 1.5) and 25 mM NaOH, and assay was performed by repeatedly capturing antibodies. The dissociation constants KD (mol/L) for FcγRs of each antibody were calculated using Biacore T200 Evaluation Software 2.0, and using the 1:1 Langmuir binding model for FcγRIa and FcγRIIIa and the steady state affinity model for FcγRIIa. For FcγRIIb, the binding amount of FcγRIIb per unit amount of antibody was calculated by correcting the binding amount of FcγRIIb obtained from the sensorgram obtained by the measurement with the amount of antibody captured onto the chip surface.

[4] = target: T4, human FcγRIIa R allotype extracellular domain with C-terminal His-tag (human, UniProt P12318 34-217); assay: as above
T4 construct: extracellular domain; also called hFcγR IIa R
T4 sequence (looked up): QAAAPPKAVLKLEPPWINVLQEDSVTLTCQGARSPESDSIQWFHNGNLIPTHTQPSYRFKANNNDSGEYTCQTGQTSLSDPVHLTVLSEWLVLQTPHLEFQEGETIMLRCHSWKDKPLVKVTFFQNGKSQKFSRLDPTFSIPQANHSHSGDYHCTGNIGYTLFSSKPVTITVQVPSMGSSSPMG
Protocol: as §1

[5] = target: T5, human FcγRIIIa V allotype extracellular domain with C-terminal His-tag (human, UniProt P08637 17-208); assay: as above
T5 construct: extracellular domain; also called hFcγR IIIa V
Protocol: as §1

[6] = target: T6, human FcγRIIIa F allotype extracellular domain with C-terminal His-tag (human, UniProt P08637 17-208); assay: as above
T6 construct: extracellular domain; also called hFcγR IIIa F
Protocol: as §1

[7] = target: T7, human FcγRIIa H allotype extracellular domain with C-terminal His-tag (human, UniProt P12318 34-217); assay: as above
T7 construct: extracellular domain; also called hFcγR IIa H
T7 sequence (looked up): T4 sequence (looked up) with R134H
Protocol: as §1

[8] = target: T1, human FcγRIIb extracellular domain with …; assay: SPR; FcγRIIb bound amount per unit captured Ab
[9] = target: T3, human FcγRIa extracellular domain with …; assay: SPR; KD of 04H1389-G1m/04L1615-k0MT divided by KD of variant
[10] = target: T2, human FcRn; assay: as above
[11] = target: T4, human FcγRIIa R allotype extracellular …; assay: as above
[12] = target: T5, human FcγRIIIa V allotype extracellular …; assay: as above
[13] = target: T7, human FcγRIIa H allotype extracellular …; assay: as above

T5 sequence (P08637 17-208 F176V): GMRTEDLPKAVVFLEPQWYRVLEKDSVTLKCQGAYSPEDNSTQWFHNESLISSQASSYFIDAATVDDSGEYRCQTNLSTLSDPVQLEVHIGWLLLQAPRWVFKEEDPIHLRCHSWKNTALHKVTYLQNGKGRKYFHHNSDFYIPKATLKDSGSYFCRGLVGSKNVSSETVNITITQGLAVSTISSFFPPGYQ
T3 sequence (P12314 16-292): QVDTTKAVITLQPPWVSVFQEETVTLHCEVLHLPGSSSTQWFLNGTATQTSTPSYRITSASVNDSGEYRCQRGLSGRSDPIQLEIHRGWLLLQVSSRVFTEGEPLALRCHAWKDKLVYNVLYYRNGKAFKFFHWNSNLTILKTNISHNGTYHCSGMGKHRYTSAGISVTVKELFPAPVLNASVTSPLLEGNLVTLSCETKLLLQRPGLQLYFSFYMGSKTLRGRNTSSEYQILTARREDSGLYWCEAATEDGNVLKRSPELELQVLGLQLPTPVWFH
T6 sequence (P08637 17-208): as the sequence (P08637 17-208 F176V) above, with V160F counted along it

Relative binding amount [1]: 2.1
Kd [2]: 460 nM
Kd [3]: 0.062 nM
Kd [4]: 180 nM
Kd [5]: 1.3 nM
Kd [6]: 2.6 nM
Kd [7]: 87 nM
Binding amount [8]: 0.024
Relative value to KD between G1m and hFcγRs [9]: 0.7
Relative value to KD between G1m and hFcRn [10]: 2.8
Relative value to KD between G1m and hFcγRs [11]: 8.2
Relative value to KD between G1m and hFcγRs [12]: 705
Relative value to KD between G1m and hFcγRs [13]: 12.3
B1: 04H1389-Km473/04L1615-k0MT//04H1389-Hm482/04L1615-k0MT (antibody)
heavy 1: EVQLVESGGGLVKPGGSLRLSCAASGFTFSSKTMNWVRQAPGKGLEWVSSISTQSHYIYYAESVKGRFTISRDNAKNSLYLQMNSLRAEDTAVYYCARYGKREDMLWVFDYWGQGTLVTVSSASTKGPSVFPLAPSSKSTSGGTAALGCLVKDYFPEPVTVSWNSGALTSGVHTFPAVLQSSGLYSLSSVVTVPSSSLGTQTYICNVNHKPSNTKVDKRVEPKSCDKTHTCPPCPAPEFQWGPMVFLFPPKPKDVLMISRTPEVTCVVVDVSDEEPEVKFNWYVDGVEVHNAKTKPREEQYNATYRVVSVLPVLHQDWLNGKEYKCKVSNDALPAPIEKTISKAKGQPREPQVCTLPPSREEMTKNQVSLWCLVKGFYPSDIAVEWESNGQPENNYKTTPPVLDSDGSFFLYSKLTVDKSRWQQGNVFSCSVMHEALHAHTTRKELSLSP
heavy 2: EVQLVESGGGLVKPGGSLRLSCAASGFTFSSKTMNWVRQAPGKGLEWVSSISTQSHYIYYAESVKGRFTISRDNAKNSLYLQMNSLRAEDTAVYYCARYGKREDMLWVFDYWGQGTLVTVSSASTKGPSVFPLAPSSKSTSGGTAALGCLVKDYFPEPVTVSWNSGALTSGVHTFPAVLQSSGLYSLSSVVTVPSSSLGTQTYICNVNHKPSNTKVDKRVEPKSCDKTHTCPPCPAPELLAGPSVFLFPPKPKDVLMISRTPEVTCVVVDVSHEEPEVKFNWYVDGVEVHNAKTKPREEQYNATYRVVSVLPVLHQDWLNGKEYKCKVSNDALPKPDEETISKAKGQPREPQVYTLPPSRCEMTKNQVSLSCAVKGFYPSDIAVEWESNGQPENNYKTTPPVLDSDGSFFLVSKLTVDKSRWQQGNVFSCSVMHEALHAHTTRKELSLSP
light: DIVMTQSPLSLPVTPGEPASISCQGPSTGVGDYNYVHWYQQKPGQAPRLLIYFTSKKPSGVPDRFSGSGSGTDFTLKISRVEAEDVGVYYCQTYAAPLGPMFGQGTKLEIKRTVAAPSVFIFPPSDEQLKSGTASVVCLLNNFYPREAKVQWKVDNALQSGNSQESVTEQDSKDSTYSLSSTLTLSKADYEKHKVYACEVTHQGLSSPVTKSFNRGEC
notes: Heterodimerized antibody with N434A/Y436T/Q438R/S440E

Relative binding amount [1]: 1.9
Kd [2]: 470 nM
Kd [3]: 0.042 nM
Kd [4]: 290 nM
Kd [5]: 0.62 nM
Kd [6]: 1.4 nM
Kd [7]: 210 nM
Binding amount [8]: 0.021
Relative value to KD between G1m and hFcγRs [9]: 1.1
Relative value to KD between G1m and hFcRn [10]: 2.8
Relative value to KD between G1m and hFcγRs [11]: 5.1
Relative value to KD between G1m and hFcγRs [12]: 1470
Relative value to KD between G1m and hFcγRs [13]: 5
B2: 04H1389-Km481/04L1615-k0MT//04H1389-Hm498/04L1615-k0MT (antibody)
heavy 1: B1 heavy 1 with I337E
heavy 2: B1 heavy 2 with K335A, D337E
light: B1 light
notes: as for B1

Relative binding amount [1]: 2.1
Kd [2]: 1700 nM
Kd [3]: 0.025 nM
Kd [4]: 260 nM
Kd [5]: 0.56 nM
Kd [6]: 1.2 nM
Kd [7]: 190 nM
Binding amount [8]: 0.024
Relative value to KD between G1m and hFcγRs [9]: 1.8
Relative value to KD between G1m and hFcRn [10]: 0.7
Relative value to KD between G1m and hFcγRs [11]: 5.8
Relative value to KD between G1m and hFcγRs [12]: 1620
Relative value to KD between G1m and hFcγRs [13]: 5.7
B3: 04H1389-Km461/04L1615-k0MT//04H1389-Hm443/04L1615-k0MT (antibody, human IgG1, kappa)
heavy 1: B1 heavy 1 with I337E, A439N, T441Y, R443Q, E445S
heavy 2: B1 heavy 2 with K335A, D337E, A439N, T441Y, R443Q, E445S
light: B1 light
notes: Heterodimerized antibody

Relative binding amount [1]: 2.6
Kd [2]: 1700 nM
Kd [3]: 0.048 nM
Kd [4]: 160 nM
Kd [5]: 1.1 nM
Kd [6]: 2.2 nM
Kd [7]: 74 nM
Binding amount [8]: 0.029
Relative value to KD between G1m and hFcγRs [9]: 0.9
Relative value to KD between G1m and hFcRn [10]: 0.8
Relative value to KD between G1m and hFcγRs [11]: 9.5
Relative value to KD between G1m and hFcγRs [12]: 811
Relative value to KD between G1m and hFcγRs [13]: 14.4
B4: 04H1389-Km462/04L1615-k0MT//04H1389-Hm445/04L1615-k0MT (antibody, human IgG1, kappa)
heavy 1: B1 heavy 1 with A439N, T441Y, R443Q, E445S
heavy 2: B1 heavy 2 with A439N, T441Y, R443Q, E445S
light: B1 light
notes: Heterodimerized antibody
